Test results published in the supplement of paper PMC5998384.

Experiments:
HeLa Kyoto [1] = test: solubility change mitosis vs G1/S (difference of NP-40 vs SDS log2 ratios) (log2 ratio difference); higher = more soluble in mitosis
HeLa Kyoto [2] = test: solubility in G1/S (NP-40 vs SDS abundance) (log2 ratio); higher = more soluble; details: cell cycle stage: G1/S
HeLa Kyoto [3] = test: melting temperature (median over replicates), in situ; higher = more thermally stable
HeLa Kyoto [4] = test: thermal stability score vs G1/S (z-score of summed log2 fold changes over temperatures); higher = more thermally stable than in G1/S
[5] = cell cycle stage: early G1 (4.5 h after nocodazole release)
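For melting temperature (median over replicates), in situ in this document: HeLa Kyoto cells synchronized by double thymidine or nocodazole block, proteins quantified by TMT10plex mass spectrometry, three independent biological replicates.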
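For solubility change mitosis vs G1/S (difference of NP-40 vs SDS log2 ratios) in this document: synchronized HeLa Kyoto cells (double thymidine block for G1/S, nocodazole release for mitosis), protein amounts in NP-40 versus SDS lysates quantified by mass spectrometry, three biological replicates.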
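For solubility in G1/S (NP-40 vs SDS abundance) in this document: HeLa Kyoto cells arrested at G1/S by double thymidine block, proteins quantified by TMT10plex mass spectrometry in mild NP-40 versus SDS extracts, three biological replicates.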
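For thermal stability score vs G1/S (z-score of summed log2 fold changes over temperatures) in this document: synchronized HeLa Kyoto cells, proteins quantified by TMT10plex mass spectrometry, three biological replicates, mitosis taken 0.5 h after nocodazole release, G1/S directly after double thymidine block.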

## MAQCVQSVQELIPDSFVPCVAALCSDEAERLTRLNHLSFAELLKPFSRLTSEVHMRDPNNQLHVIKNLKIAVSNIVTQPPQPGAIRKLLNDVVSGSQPAEGLVANVITAGDYDLNISATTPWFESYRETFLQSMPALDHEFLNHYLACMLVASSSEAEPVEQFSKLSQEQHRIQHNSDYSYPKWFIPNTLKYYVLLHDVSAGDEQRAESIYEEMKQKYGTQGCYLLKINSRTSNRASDEQIPDPWSQYLQKNSIQNQESYEDGPCTITSNKNSDNNLLSLDGLDNEVKDGLPNNFRAHPLQLEQSSDPSNSIDGPDHLRSASSLHETKKGNTGIIHGACLTLTDHDRIRQFIQEFTFRGLLPHIEKTIRQLNDQLISRKGLSRSLFSATKKWFSGSKVPEKSINDLKNTSGLLYPPEAPELQIRKMADLCFLVQHYDLAYSCYHTAKKDFLNDQAMLYAAGALEMAAVSAFLQPGAPRPYPAHYMDTAIQTYRDICKNMVLAERCVLLSAELLKSQSKYSEAAALLIRLTSEDSDLRSALLLEQAAHCFINMKSPMVRKYAFHMILAGHRFSKAGQKKHALRCYCQAMQVYKGKGWSLAEDHINFTIGRQSYTLRQLDNAVSAFRHILINESKQSAAQQGAFLREYLYVYKNVSQLSPDGPLPQLPLPYINSSATRVFFGHDRRPADGEKQAATHVSLDQEYDSESSQQWRELEEQVVSVVNKGVIPSNFHPTQYCLNSYSDNSRFPLAVVEEPITVEVAFRNPLKVLLLLTDLSLLWKFHPKDFSGKDNEEVKQLVTSEPEMIGAEVISEFLINGEESKVARLKLFPHHIGELHILGVVYNLGTIQGSMTVDGIGALPGCHTGKYSLSMSVRGKQDLEIQGPRLNNTKEEKTSVKYGPDRRLDPIITEEMPLLEVFFIHFPTGLLCGEIRKAYVEFVNVSKCPLTGLKVVSKRPEFFTFGGNTAVLTPLSPSASENCSAYKTVVTDATSVCTALISSASSVDFGIGTGSQPEVIPVPLPDTVLLPGASVQLPMWLRGPDEEGVHEINFLFYYESVKKQPKIRHRILRHTAIICTSRSLNVRATVCRSNSLENEEGRGGNMLVFVDVENTNTSEAGVKEFHIVQVSSSSKHWKLQKSVNLSENKDTKLASREKGKFCFKAIRCEKEEAATQSSEKYTFADIIFGNEQIISSASPCADFFYRSLSSELKKPQAHLPVHTEKQSTEDAVRLIQKCSEVDLNIVILWKAYVVEDSKQLILEGQHHVILRTIGKEAFSYPQKQEPPEMELLKFFRPENITVSSRPSVEQLSSLIKTSLHYPESFNHPFHQKSLCLVPVTLLLSNCSKADVDVIVDLRHKTTSPEALEIHGSFTWLGQTQYKLQLKSQEIHSLQLKACFVHTGVYNLGTPRVFAKLSDQVTVFETSQQNSMPALIIISNV [TRAPPC8]
HeLa Kyoto [1]
  solubility change mitosis (log2): -0.114
HeLa Kyoto [2]
  solubility in G1/S (log2): -0.261
HeLa Kyoto [3]; cell cycle stage: G1/S
  melting temperature: 51.5 °C
HeLa Kyoto [3]; cell cycle stage: mitosis
  melting temperature: 49.9 °C
HeLa Kyoto [4]; [5]
  thermal stability score: -0.214
HeLa Kyoto [4]; cell cycle stage: mitosis
  thermal stability score: -0.392

## MGGCTVKPQLLLLALVLHPWNPCLGADSEKPSSIPTDKLLVITVATKESDGFHRFMQSAKYFNYTVKVLGQGEEWRGGDGINSIGGGQKVRLMKEVMEHYADQDDLVVMFTECFDVIFAGGPEEVLKKFQKANHKVVFAADGILWPDKRLADKYPVVHIGKRYLNSGGFIGYAPYVNRIVQQWNLQDNDDDQLFYTKVYIDPLKREAINITLDHKCKIFQTLNGAVDEVVLKFENGKARAKNTFYETLPVAINGNGPTKILLNYFGNYVPNSWTQDNGCTLCEFDTVDLSAVDVHPNVSIGVFIEQPTPFLPRFLDILLTLDYPKEALKLFIHNKEVYHEKDIKVFFDKAKHEIKTIKIVGPEENLSQAEARNMGMDFCRQDEKCDYYFSVDADVVLTNPRTLKILIEQNRKIIAPLVTRHGKLWSNFWGALSPDGYYARSEDYVDIVQGNRVGVWNVPYMANVYLIKGKTLRSEMNERNYFVRDKLDPDMALCRNAREMGVFMYISNRHEFGRLLSTANYNTSHYNNDLWQIFENPVDWKEKYINRDYSKIFTENIVEQPCPDVFWFPIFSEKACDELVEEMEHYGKWSGGKHHDSRISGGYENVPTDDIHMKQVDLENVWLHFIREFIAPVTLKVFAGYYTKGFALLNFVVKYSPERQRSLRPHHDASTFTINIALNNVGEDFQGGGCKFLRYNCSIESPRKGWSFMHPGRLTHLHEGLPVKNGTRYIAVSFIDP [PLOD2]
HeLa Kyoto [1]
  solubility change mitosis (log2): -0.123
HeLa Kyoto [2]
  solubility in G1/S (log2): 0.13
HeLa Kyoto [3]; cell cycle stage: G1/S
  melting temperature: 53.9 °C
HeLa Kyoto [3]; cell cycle stage: mitosis
  melting temperature: 54.6 °C
HeLa Kyoto [4]; [5]
  thermal stability score: 3.26
HeLa Kyoto [4]; cell cycle stage: mitosis
  thermal stability score: 4.23

## TACC3
HeLa Kyoto [1]
  solubility change mitosis (log2): 0.304
HeLa Kyoto [2]
  solubility in G1/S (log2): 0.351
HeLa Kyoto [3]; cell cycle stage: G1/S
  melting temperature: 53.3 °C
HeLa Kyoto [3]; cell cycle stage: mitosis
  melting temperature: 53.1 °C
HeLa Kyoto [4]; [5]
  thermal stability score: -0.722
HeLa Kyoto [4]; cell cycle stage: mitosis
  thermal stability score: 1.13

## MDRNPSPPPPGRDKEEEEEVAGGDCIGSTVYSKHWLFGVLSGLIQIVSPENTKSSSDDEEQLTELDEEMENEICRVWDMSMDEDVALFLQEFNAPDIFMGVLAKSKCPRLREICVGILGNMACFQEICVSISSDKNLGQVLLHCLYDSDPPTLLETSRLLLTCLSQAEVASVWVERIQEHPAIYDSICFIMSSSTNVDLLVKVGEVVDKLFDLDEKLMLEWVRNGAAQPLDQPQEESEEQPVFRLVPCILEAAKQVRSENPEWLDVYMHILQLLTTVDDGIQAIVHCPDTGKDIWNLLFDLVCHEFCQSDDPPIILQEQKTVLASVFSVLSAIYASQTEQEYLKIEKVDLPLIDSLIRVLQNMEQCQKKPENSAESNTEETKRTDLTQDDFHLKILKDILCEFLSNIFQALTKETVAQGVKEGQLSKQKCSSAFQNLLPFYSPVVEDFIKILREVDKALADDLEKNFPSLKVQT [SAAL1]
HeLa Kyoto [1]
  solubility change mitosis (log2): 0.00183
HeLa Kyoto [2]
  solubility in G1/S (log2): 0.294
HeLa Kyoto [3]; cell cycle stage: G1/S
  melting temperature: 52.3 °C
HeLa Kyoto [3]; cell cycle stage: mitosis
  melting temperature: 50.6 °C
HeLa Kyoto [4]; [5]
  thermal stability score: 0.137
HeLa Kyoto [4]; cell cycle stage: mitosis
  thermal stability score: 0.212

## MWNMLIVAMCLALLGCLQAQELQGHVSIILLGATGDLAKKYLWQGLFQLYLDEAGRGHSFSFHGAALTAPKQGQELMAKALESLSCPKDMAPSHCAEHKDQFLQLSQYRQLKTAEDYQALNKDIEAQLQHAGLREAGRIFYFSVPPFAYEDIARNINSSCRPGPGAWLRVVLEKPFGHDHFSAQQLATELGTFFQEEEMYRVDHYLGKQAVAQILPFRDQNRKALDGLWNRHHVERVEIIMKETVDAEGRTSFYEEYGVIRDVLQNHLTEVLTLVAMELPHNVSSAEAVLRHKLQVFQALRGLQRGSAVVGQYQSYSEQVRRELQKPDSFHSLTPTFAAVLVHIDNLRWEGVPFILMSGKALDERVGYARILFKNQACCVQSEKHWAAAQSQCLPRQLVFHIGHGDLGSPAVLVSRNLFRPSLPSSWKEMEGPPGLRLFGSPLSDYYAYSPVRERDAHSVLLSHIFHGRKNFFITTENLLASWNFWTPLLESLAHKAPRLYPGGAENGRLLDFEFSSGRLFFSQQQPEQLVPGPGPAPMPSDFQVLRAKYRESPLVSAWSEELISKLANDIEATAVRAVRRFGQFHLALSGGSSPVALFQQLATAHYGFPWAHTHLWLVDERCVPLSDPESNFQGLQAHLLQHVRIPYYNIHPMPVHLQQRLCAEEDQGAQIYAREISALVANSSFDLVLLGMGADGHTASLFPQSPTGLDGEQLVVLTTSPSQPHRRMSLSLPLINRAKKVAVLVMGRMKREITTLVSRVGHEPKKWPISGVLPHSGQLVWYMDYDAFLG [H6PD]
HeLa Kyoto [1]
  solubility change mitosis (log2): 0.0207
HeLa Kyoto [2]
  solubility in G1/S (log2): 0.122
HeLa Kyoto [3]; cell cycle stage: G1/S
  melting temperature: 53.3 °C
HeLa Kyoto [3]; cell cycle stage: mitosis
  melting temperature: 53.7 °C
HeLa Kyoto [4]; [5]
  thermal stability score: 1.01
HeLa Kyoto [4]; cell cycle stage: mitosis
  thermal stability score: 2.18

## MAVVPASLSGQDVGSFAYLTIKDRIPQILTKVIDTLHRHKSEFFEKHGEEGVEAEKKAISLLSKLRNELQTDKPFIPLVEKFVDTDIWNQYLEYQQSLLNESDGKSRWFYSPWLLVECYMYRRIHEAIIQSPPIDYFDVFKESKEQNFYGSQESIIALCTHLQQLIRTIEDLDENQLKDEFFKLLQISLWGNKCDLSLSGGESSSQNTNVLNSLEDLKPFILLNDMEHLWSLLSNCKKTREKASATRVYIVLDNSGFELVTDLILADFLLSSELATEVHFYGKTIPWFVSDTTIHDFNWLIEQVKHSNHKWMSKCGADWEEYIKMGKWVYHNHIFWTLPHEYCAMPQVAPDLYAELQKAHLILFKGDLNYRKLTGDRKWEFSVPFHQALNGFHPAPLCTIRTLKAEIQVGLQPGQGEQLLASEPSWWTTGKYGIFQYDGPL [ARMT1]
HeLa Kyoto [1]
  solubility change mitosis (log2): -0.15
HeLa Kyoto [2]
  solubility in G1/S (log2): 0.0146
HeLa Kyoto [3]; cell cycle stage: G1/S
  melting temperature: 49.6 °C
HeLa Kyoto [3]; cell cycle stage: mitosis
  melting temperature: 49 °C
HeLa Kyoto [4]; [5]
  thermal stability score: 1.02
HeLa Kyoto [4]; cell cycle stage: mitosis
  thermal stability score: 1.91

## MAGAGGGNDIQWCFSQVKGAVDDDVAEADIISTVEFNHSGELLATGDKGGRVVIFQQEQENKIQSHSRGEYNVYSTFQSHEPEFDYLKSLEIEEKINKIRWLPQKNAAQFLLSTNDKTIKLWKISERDKRPEGYNLKEEDGRYRDPTTVTTLRVPVFRPMDLMVEASPRRIFANAHTYHINSISINSDYETYLSADDLRINLWHLEITDRSFNIVDIKPANMEELTEVITAAEFHPNSCNTFVYSSSKGTIRLCDMRASALCDRHSKLFEEPEDPSNRSFFSEIISSISDVKFSHSGRYMMTRDYLSVKIWDLNMENRPVETYQVHEYLRSKLCSLYENDCIFDKFECCWNGSDSVVMTGSYNNFFRMFDRNTKRDITLEASRENNKPRTVLKPRKVCASGKRKKDEISVDSLDFNKKILHTAWHPKENIIAVATTNNLYIFQDKVN [PPP2R2A]
HeLa Kyoto [1]
  solubility change mitosis (log2): -0.194
HeLa Kyoto [2]
  solubility in G1/S (log2): -0.0929
HeLa Kyoto [3]; cell cycle stage: G1/S
  melting temperature: 54.7 °C
HeLa Kyoto [3]; cell cycle stage: mitosis
  melting temperature: 54.2 °C
HeLa Kyoto [4]; [5]
  thermal stability score: -0.543
HeLa Kyoto [4]; cell cycle stage: mitosis
  thermal stability score: -3.42
